Test results as given in article PMC2757917, “Mutations in the DNA-Binding Domain of NR2E3 Affect In Vivo Dimerization and Interaction with CRX” (PLoS ONE, 2009).

Molecular target: the molecule itself
Assay: native gel or EMSA; total protein extracts of transfected HEK293T cells on an 8% PAA-gel under non-denaturing conditions, Western blot with an anti-NR2E3 antibody

B1: human NR2E3 wild-type protein (pcDNA3.1/HisC-hNR2E3) (natural protein)
chain: not shown
notes: NR2E3 (PNR), photoreceptor-specific nuclear receptor, human, SwissProt Q9Y5X4; band of 45 kDa on the denaturing gel; also called PNR; pcDNA-NR2E3-His/C; source: HEK293T, transiently transfected, in lysate
stoichiometry N: 2
